T1: cynomolgus sclerostin (cynomolgus monkey)
T1 chain: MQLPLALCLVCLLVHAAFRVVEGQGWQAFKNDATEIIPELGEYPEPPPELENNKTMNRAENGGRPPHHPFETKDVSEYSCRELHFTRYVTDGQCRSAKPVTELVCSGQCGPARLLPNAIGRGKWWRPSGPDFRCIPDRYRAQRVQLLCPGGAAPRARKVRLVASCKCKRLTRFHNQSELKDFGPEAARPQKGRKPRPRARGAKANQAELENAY

T2: human sclerostin (human)
T2 chain: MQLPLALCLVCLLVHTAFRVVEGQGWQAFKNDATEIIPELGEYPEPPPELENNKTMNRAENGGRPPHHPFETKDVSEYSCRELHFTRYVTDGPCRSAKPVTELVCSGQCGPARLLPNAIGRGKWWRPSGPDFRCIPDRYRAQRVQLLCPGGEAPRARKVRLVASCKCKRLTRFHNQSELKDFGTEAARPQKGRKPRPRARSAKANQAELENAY

T3: rat sclerostin (rat)
T3 chain: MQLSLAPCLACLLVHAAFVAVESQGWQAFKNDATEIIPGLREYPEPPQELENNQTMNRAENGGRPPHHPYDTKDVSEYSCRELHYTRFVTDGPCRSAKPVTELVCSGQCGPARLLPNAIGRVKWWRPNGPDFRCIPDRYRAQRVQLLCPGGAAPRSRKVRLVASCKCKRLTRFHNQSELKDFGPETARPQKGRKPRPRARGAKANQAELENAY

T4: mouse sclerostin (mouse)
T4 chain: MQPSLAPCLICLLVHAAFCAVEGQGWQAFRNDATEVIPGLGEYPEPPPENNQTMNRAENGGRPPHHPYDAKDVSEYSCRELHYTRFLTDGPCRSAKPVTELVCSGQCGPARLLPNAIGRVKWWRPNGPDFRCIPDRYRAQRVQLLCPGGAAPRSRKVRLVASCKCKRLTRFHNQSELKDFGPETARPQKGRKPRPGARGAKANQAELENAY

B1: bsH638/abL152 (antibody, V domains shown)
VH: QVQLVQSGAEVKKPGASVKVSCKVSGYTLTHTFMHWVRQAPGKGLEWMGWSDPEIGDHEYASKFQGRVTMTEDTSTDTAYMELSSLRSEDTAVYYCATGDTTYKFDYWGQGTLVTVSS
VL: DIQMTQSPSSLSASVGDRVTITCRASEGIHDALAWYQQKPGKAPKLLIYWASTLESGVPSRFSGSGSGTDFTLTISSLQPEDFATYYCQQGDTLPYTFGGGTKVEIK
B2: amH848/abL152 (antibody, V domains shown)
VH: EVQLVQSGAEVKKPGASVKVSCKASGYTFTSYNMHWVRQAPGKGLEWMGEIMPHSGRYGLKQKFKGRVTMTRDTSISTAYMELSRLRSDDTAVYYCARLEYSEIYDDWYFDVWGQGTTVTVSS
VL: DIQMTQSPSSLSASVGDRVTITCRASEGIHDALAWYQQKPGKAPKLLIYWASTLESGVPSRFSGSGSGTDFTLTISSLQPEDFATYYCQQGDTLPYTFGGGTKVEIK
B3: bsH656/abL152 (antibody, V domains shown)
VH: QVQLVQSGAEVKKPGASVKVSCKVSGYTLTHTFMHWVRQAPGKGLEWMGWSDPEIGDTEYASKFQGRVTMTEDTSTDTAYMELSSLRSEDTAVYYCATGDTTYKFDYWGQGTLVTVSS
VL: DIQMTQSPSSLSASVGDRVTITCRASEGIHDALAWYQQKPGKAPKLLIYWASTLESGVPSRFSGSGSGTDFTLTISSLQPEDFATYYCQQGDTLPYTFGGGTKVEIK
B4: mabA_NpH3 (antibody, V domains shown)
VH: EVQLVQSGAEVKKPGASVKVSCKASGYTFTDYNMHWVRQAPGQGLEWMGEINPNSGGAGYNQKFKGRVTMTTDTSTSTAYMELRSLRSDDTAVYYCARLGYDDIYDDWYFDVWGQGTTVTVSS
VL: DIQMTQSPSSLSASVGDRVTITCRASQDISNYLNWYQQKPGKAPKLLIYYHSRLLSGVPSRFSGSGSGTDFTLTISSLQPEDFATYYCHQGDTLPYTFGGGTKVEIK
B5: mabB (antibody, V domains shown)
VH: QVQLVQSGAEVKKPGASVKVSCKVSGFPIKDTFQHWVRQAPGKGLEWMGWSDPEIGDTEYASKFQGRVTMTEDTSTDTAYMELSSLRSEDTAVYYCATGDTTYKFDFWGQGTTVTVSS
VL: DIQMTQSPSSLSASVGDRVTITCKASQDVHTAVAWYQQKPGKAPKLLIYWASTRWTGVPSRFSGSGSGTDFTLTISSLQPEDFATYYCQQYSDYPWTFGGGTKVEIK
B6: mabB_pH5 (antibody, V domains shown)
VH: QVQLVQSGAEVKKPGASVKVSCKVSGFPIKHHFQHWVRQAPGKGLEWMGWSDPEIGDTEYASKFQGRVTMTEDTSTDTAYMELSSLRSEDTAVYYCATGHTTYKFDFWGQGTTVTVSS
VL: DIQMTQSPSSLSASVGDRVTITCKASQDVHTAVAWYQQKPGKAPKLLIYWASTRWTGVPSRFSGSGSGTDFTLTISSLQPEDFATYYCQQYSDYHWTFGGGTKVEIK
B7: mabB_pH4 (antibody, V domains shown)
VH: QVQLVQSGAEVKKPGASVKVSCKVSGFPIKHHFQHWVRQAPGKGLEWMGWSDPEIGDTEYASKFQGRVTMTEDTSTDTAYMELSSLRSEDTAVYYCATGDTTYKFDFWGQGTTVTVSS
VL: DIQMTQSPSSLSASVGDRVTITCKASQDVHTAVAWYQQKPGKAPKLLIYWASTRWTGVPSRFSGSGSGTDFTLTISSLQPEDFATYYCQQYSDYHWTFGGGTKVEIK

Experiments:
[1] = target: T1, cynomolgus sclerostin; assay: SPR, pH 7.4
[2] = target: T2, human sclerostin; assay: SPR, pH 7.4
[3] = target: T3, rat sclerostin; assay: SPR, pH 5.8, 37C
[4] = target: T3, rat sclerostin; assay: SPR, pH 7.4, 37C
[5] = target: T4, mouse sclerostin; assay: SPR, pH 5.8, 37C
[6] = target: T4, mouse sclerostin; assay: SPR, pH 7.4, 37C

Binder | koff [1] [s⁻¹] | koff [2] [s⁻¹] | Kd [6] [nM] | also measured
B1 | 0.0107 | 0.0093 | – | –
B2 | 0.00854 | 0.00946 | – | –
B3 | 0.0108 | 0.0104 | – | –
B4 | – | – | – | Kd [3]: 0.0454 nM; Kd [4]: 0.0426 nM
B5 | – | – | 0.0141 | Kd [5]: 0.26 nM
B6 | – | – | 0.589 | –
B7 | – | – | 0.782 | –

Reference: patent US11608374 (dated 2023)
